How the values were obtained:
[1] = molecular target: T1, CCR4 on transfected mouse myeloma NSO cells (UniProt P51679 1-360, limits assumed); assay: adhesion of receptor-expressing NSO cells to immobilized stalkokine
T1 construct: whole, on cells; also called CCR4-NSO; CCR4 NSO cells
T1 sequence (looked up): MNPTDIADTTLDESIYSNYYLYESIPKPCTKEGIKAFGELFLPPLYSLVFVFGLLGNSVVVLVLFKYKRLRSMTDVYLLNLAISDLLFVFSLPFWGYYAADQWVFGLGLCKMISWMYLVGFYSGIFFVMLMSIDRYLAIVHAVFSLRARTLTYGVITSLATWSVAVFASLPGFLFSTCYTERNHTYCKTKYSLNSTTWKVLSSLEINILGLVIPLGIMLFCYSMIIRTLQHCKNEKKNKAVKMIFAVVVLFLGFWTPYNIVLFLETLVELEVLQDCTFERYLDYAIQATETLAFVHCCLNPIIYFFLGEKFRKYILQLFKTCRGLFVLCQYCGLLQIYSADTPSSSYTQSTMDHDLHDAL

CCR4 on CEM cells [2] = molecular target: T2, CCR4 on CEM cells (UniProt P51679 1-360, limits assumed); assay: displacement of radiolabeled MDC or TARC from CEM cells expressing CCR4 by stalkokine supernatant
T2 construct: whole, on cells; also called CEM cells expressing CCR4; CEM cells that express CCR4
T2 sequence (looked up): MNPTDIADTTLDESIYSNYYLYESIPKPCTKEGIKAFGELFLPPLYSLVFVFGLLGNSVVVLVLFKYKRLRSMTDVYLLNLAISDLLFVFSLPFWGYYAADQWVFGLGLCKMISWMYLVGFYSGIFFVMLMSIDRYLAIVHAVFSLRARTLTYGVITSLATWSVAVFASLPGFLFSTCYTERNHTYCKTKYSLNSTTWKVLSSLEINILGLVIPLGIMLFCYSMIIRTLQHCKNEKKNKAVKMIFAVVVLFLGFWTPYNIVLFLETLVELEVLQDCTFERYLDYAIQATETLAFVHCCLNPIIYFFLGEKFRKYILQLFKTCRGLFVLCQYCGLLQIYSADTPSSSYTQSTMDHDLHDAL

[3] = molecular target: T3, CCR1 on transfected mouse myeloma NSO cells (UniProt P32246 1-355, limits assumed); assay: adhesion of receptor-expressing NSO cells to immobilized stalkokine
T3 construct: whole, on cells; also called CCR1-NSO
T3 sequence (looked up): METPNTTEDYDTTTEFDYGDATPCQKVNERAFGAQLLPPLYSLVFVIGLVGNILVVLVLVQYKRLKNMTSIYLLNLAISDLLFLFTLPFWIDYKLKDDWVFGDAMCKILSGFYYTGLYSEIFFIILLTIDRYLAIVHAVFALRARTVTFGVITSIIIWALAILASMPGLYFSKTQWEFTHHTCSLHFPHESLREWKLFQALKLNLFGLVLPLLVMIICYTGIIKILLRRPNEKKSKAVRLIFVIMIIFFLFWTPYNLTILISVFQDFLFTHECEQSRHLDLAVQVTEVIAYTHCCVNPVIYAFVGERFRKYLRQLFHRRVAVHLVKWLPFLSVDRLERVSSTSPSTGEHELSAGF

[4] = molecular target: T4, human CCR10 (CCX CKR) with N-terminal FLAG epitope, stably expressed on HEK293 cells (human, UniProt Q9NPB9 1-350); assay: summary of Example 1; assay for this ligand not described
T4 construct: also called HEK293-CCR10 cells; CCR10-expressing cells
T4 sequence: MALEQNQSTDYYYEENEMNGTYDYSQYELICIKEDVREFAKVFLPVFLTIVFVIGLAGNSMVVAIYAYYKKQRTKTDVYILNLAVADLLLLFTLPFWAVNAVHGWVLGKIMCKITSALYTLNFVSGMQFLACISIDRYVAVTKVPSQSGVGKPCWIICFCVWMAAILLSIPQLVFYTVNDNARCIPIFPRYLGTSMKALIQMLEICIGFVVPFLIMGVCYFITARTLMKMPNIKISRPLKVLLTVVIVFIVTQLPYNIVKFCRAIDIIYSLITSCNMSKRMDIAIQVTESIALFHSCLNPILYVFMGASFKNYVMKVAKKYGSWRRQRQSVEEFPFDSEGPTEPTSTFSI

[5] = molecular target: T5, CCR8 on transfected mouse myeloma NSO cells (UniProt P51685 1-355, limits assumed); assay: adhesion of receptor-expressing NSO cells to immobilized stalkokine
T5 construct: whole, on cells; also called CCR8-NSO

[6] = molecular target: T4, human CCR10 (CCX CKR) with N-terminal …; assay: homologous competition, radiolabeled TECK with cold TECK on cells
CCR4 on CEM cells [7] = molecular target: T2, CCR4 on CEM cells; assay: displacement of radiolabeled MDC or TARC from CEM cells expressing CCR4 by soluble MDC
[8] = molecular target: T1, CCR4 on transfected mouse myeloma NSO …; assay: preincubation of CCR4-NSO cells with 10 ug/ml soluble chemokine, then adhesion to immobilized MDC-FRAC or TARC-FRAC
[9] = molecular target: T4, human CCR10 (CCX CKR) with N-terminal …; assay: adhesion of HEK293-CCR10 cells to stalkokine immobilized via anti-His antibody on chamber slides
[10] = molecular target: T6, CCR7 on transfected mouse myeloma NSO cells (UniProt P32248 25-378, limits assumed); assay: adhesion of receptor-expressing NSO cells to immobilized stalkokine
T6 construct: whole, on cells; also called CCR7-NSO
T6 sequence (looked up): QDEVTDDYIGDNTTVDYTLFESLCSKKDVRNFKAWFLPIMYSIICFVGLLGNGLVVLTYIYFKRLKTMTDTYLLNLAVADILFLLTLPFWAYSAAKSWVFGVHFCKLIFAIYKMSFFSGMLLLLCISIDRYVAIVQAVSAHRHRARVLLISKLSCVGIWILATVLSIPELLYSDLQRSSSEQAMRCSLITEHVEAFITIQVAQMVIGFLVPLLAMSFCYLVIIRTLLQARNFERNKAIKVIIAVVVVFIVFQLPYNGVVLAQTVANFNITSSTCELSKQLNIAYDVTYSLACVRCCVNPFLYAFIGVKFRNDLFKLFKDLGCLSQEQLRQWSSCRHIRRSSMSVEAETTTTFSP

[11] = molecular target: T4, human CCR10 (CCX CKR) with N-terminal …; assay: homologous competition, radiolabeled ELC with increasing unlabeled ELC on cells

T5 sequence (P51685 whole entry): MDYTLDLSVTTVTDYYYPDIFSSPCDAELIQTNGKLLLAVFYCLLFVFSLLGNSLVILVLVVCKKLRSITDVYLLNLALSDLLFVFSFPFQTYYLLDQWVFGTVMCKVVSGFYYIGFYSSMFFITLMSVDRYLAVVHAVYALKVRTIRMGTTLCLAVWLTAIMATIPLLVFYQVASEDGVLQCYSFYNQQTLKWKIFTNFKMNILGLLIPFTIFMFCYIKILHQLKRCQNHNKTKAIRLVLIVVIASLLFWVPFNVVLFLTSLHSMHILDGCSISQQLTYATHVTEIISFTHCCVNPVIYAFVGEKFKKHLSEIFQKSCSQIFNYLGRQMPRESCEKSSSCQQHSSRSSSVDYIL

B1: TARC-FRAC (stalkokine with a fractalkine stalk and a TARC ligand domain) (ligand, human, not shown: small tags and cut ends)
chain: ARGTNVGRECCLEYFKGAIPLRKLKTWYQTSEDCSRDAIVFVTVQGRAICSDPNNKRVKNAVKYLQSLERSEFGGTFEKQIGEVKPRTTPAAGGMDESVVLEPEATGESSSLEPTPSSQEAQRALGTSPELPTGVTGSSGTRLPPTPKAQDGGPVGTELFRVPPVSTAATWQSSAPHQPGPSLWAEAKTSEAPSTQDPSTQASTASSPAPEENAPSEGQRVWGQGQSPRPENSLEREEMGPVPAHTDAFQDWGPGSMAHVSVVPVSSEGTPSREPVASGSWTPKAEEPIHATMDPQRLGVLITPVPDAQA
notes: mature; Used as cell supernatant, soluble (displacement, calcium flux) or immobilized through anti-His antibody (adhesion); also called TARC-SK; TARC-Stalkokine
[1]
  binding result: binds
CCR4 on CEM cells [2]
  binding result: binds

B2: MCP3-FRAC (MCP3 stalkokine) (ligand)
chain: not shown
notes: mature; also called MCP3 (stalkokine form); MCP3 tethered ligand; not shown: polylinker residues
[3]
  binding result: binds

B3: vMIPII (ligand)
chain: GDTLGASWHRPDKCCLGYQKRPLPQVLLSSWYPTSQLCSKPGVIFLTKRGRQVCADKSKDWVKKLMQQLPVTAR
[4]
  binding result: binds

B4: I309-FRAC (I309 stalkokine) (ligand, human, not shown: small tags and cut ends)
chain: KSMQVPFSRCCFSFAEQEIPLRAILCYRNTSSICSNEGLIFKLKRGKEACALDTVGWVQRHRKMLRHCPSKRKEFGGTFEKQIGEVKPRTTPAAGGMDESVVLEPEATGESSSLEPTPSSQEAQRALGTSPELPTGVTGSSGTRLPPTPKAQDGGPVGTELFRVPPVSTAATWQSSAPHQPGPSLWAEAKTSEAPSTQDPSTQASTASSPAPEENAPSEGQRVWGQGQSPRPENSLEREEMGPVPAHTDAFQDWGPGSMAHVSVVPVSSEGTPSREPVASGSWTPKAEEPIHATMDPQRLGVLITPVPDAQA
notes: mature; also called I309 (stalkokine form); 1309-FRAC
[5]
  binding result: binds

B5: TECK, soluble recombinant native form chemokine (ligand, UniProt O15444 24-150, looked up)
chain: QGVFEDCCLAYHYPIGWAVLRRAWTYRIQEVSGSCNLPAAIFYLPKRHRKVCGNPKSREVQRAMKLLDARNKVFAKLHHNTQTFQAGPHAVKKLSSGNSKLSSSKFSNPISSSKRNVSLLISANSGL
notes: mature; Tracer was 125I-labeled TECK from Amersham; also called soluble TECK; cold TECK
[6]
  binding result: binds

B6: MDC, soluble chemokine (ligand, human, UniProt O00626 25-93, looked up)
chain: GPYGANMEDSVCCRDYVRYRLPLRVVKHFYWTSDSCPRPGVVLLTFRDKEICADPRVPWVKMILNKLSQ
notes: Also used radiolabeled as tracer on CEM cells; also called MDC-CK; soluble MDC
CCR4 on CEM cells [7]
  binding result: binds
[8]
  binding result: binds

B7: ELC-stalkokine (ELC ligand domain, human fractalkine mucin stalk, myc epitope and poly-histidine) (ligand, not shown: small tags and cut ends)
chain: GTNDAEDCCLSVTQKPIPGYIVRNFHYLLIKDGCRVPAVVFTTLRGRQLCAPPDQPWVERIIQRLQRTSAKMKRRSSEFGGTFEKQIGEVKPRTTPAAGGMDESVVLEPEATGESSSLEPTPSSQEAQRALGTSPELPTGVTGSSGTRLPPTPKAQDGGPVGTELFRVPPVSTAATWQSSAPHQPGPSLWAEAKTSEAPSTQDPSTQASTASSPAPEENAPSEGQRVWGQGQSPRPENSLEREEMGPVPAHTDAFQDWGPGSMAHVSVVPVSSEGTPSREPVASGSWTPKAEEPIHATMDPQRLGVLITPVPDAQA
notes: mature; also called ELC-SK; ELC-FRAC
[9]
  binding result: binds
[10]
  binding result: binds

B8: SLC-FRAC (SLC stalkokine) (ligand, human, not shown: small tags and cut ends)
chain: SDGGAQDCCLKYSQRKIPAKVVRSYRKQEPSLGCSIPAILFLPRKRSQAELCADPKELWVQQLMQHLDKTPSPQKPAQGCRKDRGASKTGKKGKGSKGCKRTERSQTPKGPEFGGTFEKQIGEVKPRTTPAAGGMDESVVLEPEATGESSSLEPTPSSQEAQRALGTSPELPTGVTGSSGTRLPPTPKAQDGGPVGTELFRVPPVSTAATWQSSAPHQPGPSLWAEAKTSEAPSTQDPSTQASTASSPAPEENAPSEGQRVWGQGQSPRPENSLEREEMGPVPAHTDAFQDWGPGSMAHVSVVPVSSEGTPSREPVASGSWTPKAEEPIHATMDPQRLGVLITPVPDAQA
notes: mature; also called SLC (stalkokine form); 6Ckine
[10]
  binding result: no binding

B9: TARC, soluble chemokine (ligand, human, UniProt Q92583 24-94, looked up)
chain: ARGTNVGRECCLEYFKGAIPLRKLKTWYQTSEDCSRDAIVFVTVQGRAICSDPNNKRVKNAVKYLQSLERS
notes: Also used radiolabeled as tracer on CEM cells; also called soluble TARC; radiolabeled TARC
[8]
  binding result: binds

B10: MDC-FRAC (stalkokine with a fractalkine stalk and an MDC ligand domain) (ligand, human, not shown: small tags and cut ends)
chain: GPYGANMEDSVCCRDYVRYRLPLRVVKHFYWTSDSCPRPGVVLLTFRDKEICADPRVPWVKMILNKLSQEFGGTFEKQIGEVKPRTTPAAGGMDESVVLEPEATGESSSLEPTPSSQEAQRALGTSPELPTGVTGSSGTRLPPTPKAQDGGPVGTELFRVPPVSTAATWQSSAPHQPGPSLWAEAKTSEAPSTQDPSTQASTASSPAPEENAPSEGQRVWGQGQSPRPENSLEREEMGPVPAHTDAFQDWGPGSMAHVSVVPVSSEGTPSREPVASGSWTPKAEEPIHATMDPQRLGVLITPVPDAQA
notes: mature; Used as cell supernatant, soluble (displacement, calcium flux) or immobilized through anti-His antibody (adhesion); also called MDC-SK; MDC-Stalkokine
[1]
  binding result: binds
CCR4 on CEM cells [2]
  binding result: binds

B11: ELC, soluble recombinant native form chemokine (ligand, UniProt Q99731 22-98, looked up)
chain: GTNDAEDCCLSVTQKPIPGYIVRNFHYLLIKDGCRVPAVVFTTLRGRQLCAPPDQPWVERIIQRLQRTSAKMKRRSS
notes: mature; also called soluble ELC; soluble native ELC
[11]
  binding result: binds

Reference: patent US6699677 (CHEMOCENTRYX, dated 2004)
